Assay results: article PMC5472405, “Epithelial chemokine CXCL14 synergizes with CXCL12 via allosteric modulation of CXCR4” (The FASEB Journal, 2017)

B1: CXC chemokine ligand 14 (CXCL14), synthetic (ligand, human, UniProt O95715 35-111, looked up)
chain: SKCKCSRKGPKIRYSDVKKLEMKPKYPHCEEKMVIITTKSVSRYRGQEHCLHPKLQSTKRFIKWYNAWNEKRRVYEE
notes: source: chemically synthesized
B2: CXC chemokine receptor 4 (CXCR4) on lentiviral particles (receptor, UniProt P61073 1-352, looked up)
chain: MEGISIYTSDNYTEEMGSGDYDSMKEPCFREENANFNKIFLPTIYSIIFLTGIVGNGLVILVMGYQKKLRSMTDKYRLHLSVADLLFVITLPFWAVDAVANWYFGNFLCKAVHVIYTVNLYSSVLILAFISLDRYLAIVHATNSQRPRKLLAEKVVYVGVWIPALLLTIPDFIFANVSEADDRYICDRFYPNDLWVVVFQFQHIMVGLILPGIVILSCYCIIISKLSHSKGHQKRKALKTTVILILAFFACWLPYYIGISIDSFILLEIIKQGCEFENTVHKWISITEALAFFHCCLNPILYAFLGAKFKTSAQHALTSVSRGSSLKILSKGKRGGHSSVSTESESSSFHSS
notes: also called CXCR4-expressing LVPs

What was measured:
[1] = biological target: B2; assay: cell-based or functional assay
[2] = biological target: B2; assay: SPR; CXCR4 lentiviral particles (8000-8500 RU) immobilised on a CM5 chip; CXCL12 or CXCL14 12.5-200 nM injected in HBS (100 mM HEPES, 150 mM NaCl, 0.005% P20, pH 7.4), 30 ul/min, 25°C; reference: particles from CXCR4-negative cells or none; simple 1-site model; Biacore 3000; settings: one partner purified
[3] = biological target: T1, full-length CXCL12α, synthetic (human, UniProt P48061-2 22-89); assay: as above; settings: one partner purified
T1 construct: also called CXC chemokine ligand 12; source: chemically synthesized
T1 sequence (P48061 22-89): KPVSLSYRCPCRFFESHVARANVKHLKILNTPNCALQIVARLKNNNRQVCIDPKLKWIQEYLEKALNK

Row | Binder | entry of R5-tropic HIV-1 (pR8Bal) into TZM-bl cells (luciferase reporter), 0-1000 nM CXCL14 [1] [fold] | entry of X4 HIV-1 (pNL4.3) into TZM-bl cells (luciferase reporter), 10-1000 nM CXCL14 alone [1] [fold] | Kd [2] [nM] | koff [2] [s⁻¹] | kon [2] [M⁻¹ s⁻¹] | Kd [3] [nM] | koff [3] [s⁻¹] | kon [3] [M⁻¹ s⁻¹]
1 | B1 | > 3 | > 3 | 8 | 0.00317 | 396000 |  |  | 
2 | B2 |  |  |  |  |  | 35 | 0.00428 | 122000
